Measured values: publication PMC5095173, “Disulfide-activated protein kinase G Iα regulates cardiac diastolic relaxation and fine-tunes the Frank–Starling response” (Nature Communications, 2016)

What was measured:
[1] = system: PKGIα (analogue-sensitive M438G), disulfide-activated; experiment: Chemical genetic phosphoproteomic screen, disulfide-activated PKGIα M438G versus unactivated control; type: biochemical, human PKGIα; substrates in rat heart homogenate; details: for log2 fold changes: Group 2 (disulfide-activated) vs Group 3 (control); for log2 fold change Disulfide vs Control: control = PKGIα C42S/M438G
Procedure, shortened: (§1)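 Analogue-sensitive human PKGIα mutants (M438G, air-oxidized to disulfide dimer; C42S/M438G, cGMP-activated), expressed in 293-F cells, thiophosphorylate substrates in rat left-ventricle lysate (20 mg ml) using N6-alkylated ATPγS. Thiophosphopeptides are recovered by covalent capture and identified with sites by LC–MS/MS, each compared against an unactivated control.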

[2] = system: PKGIα (analogue-sensitive C42S/M438G), cGMP-activated; experiment: Chemical genetic phosphoproteomic screen, cGMP-activated PKGIα C42S/M438G versus unactivated control; type: biochemical, human PKGIα; substrates in rat heart homogenate; details: for log2 fold changes: Group 1 (cGMP-activated) vs Group 3 (control); for log2 fold change cGMP vs Control: control = PKGIα C42S/M438G
Procedure, shortened: as §1

Molecule	log2 fold changes [1]	log2 fold changes [2]	log2 fold change Disulfide vs Control [1]	log2 fold change cGMP vs Control [2]
Smpx pT40 (protein, UniProt Q925F0 1-85, looked up, phosphorylated at T40) Small muscular protein: MSKQPISNVRSIQANINIPMGAFRPGAGQPPRRKESTPGTAEGAPATPEEKKPVPGMKKFPGPVVNLSEIQNVKSELKYVPKGEQ	1.906	0.3577	–	–
Stk10 pS13 (protein, UniProt E9PTG8 1-967, looked up, phosphorylated at S13) Serine/threonine-protein …: MAFANFRRILRLSTFEKRKSREYEHVRRDLDPNDVWEILGELGDGAFGKVYKAKNKETGALAAAKVIETKSEEELEDYIVEIEILATCDHPYIVKLLGAYYYDGKLWIMIEFCPGGAVDAIMLELDRGLTEPQIQVVCRQMLEALNFLHGKRIIHRDLKAGNVLMTLEGDIRLADFGVSAKNLKTLQKRDSFIGTPYWMAPEVVLCETMKDAPYDYKADIWSLGITLIEMAQIEPPHHELNPMRVLLKIAKSDPPTLLTPSKWSTEFRDFLKIALDKNPETRPSAAQLLQHPFVSTVTSNKALRELVAEAKAEVMEEIEDGKEDGSEKDAVSAVPPPVNHTQDSSANGTQPSLNSDKLLQDSSTPLPPSQPQEPVNGPCNQPSGDGSPQNTSPADEVSKNDNGLKVPVPLRKSRPLSVDARIQVTEEKQITDQAENPSSAASKPPKVNQSRPNSSALETLGVETLANGGLELPGSVTPNHSKRASDCSNLSTSESMDYGTSLSADLSLNKETGSLSLKGSKLHNKTLKRTRRFVVDGVEVSITTSKIISEDEKKDEEMRFLRRQELRELRLLQKEEHRNQTQLSTKHELQLEQMHRRFEQEINAKKKFYDVELENLERQQKQQVEKMEQDHSVRRREEAKRIRLEQDRDYARFQEQLKQMKKEVKRSIEKALRKQRQESMRMGQDSHTQKKQRLDRDFVAKQKEDLELAMKKLTAENRREICDKERDCLNKKQELLRDREAALWEMEEHQLQERHQLVKQQLKDQYFLQRHDLLRKHEKEREQMQRYNQRMMEQLKVRQQQEKARLPKIQRSDGKTRMAMYKKSLHINGAGSASEQREKVKQFSQQEEKRQKAERLQQQQKHENQMRDMVAQCESNMNELQQLQNEKCHLLVEHETQKLKALDESHNQSLKEWRDKLRPRKKALEEDLNQKKREQEMFFRLSEEAETRPTTPNRASKFFPYSSGDAS	0.1825	0.7023	–	–
Ppp1r12a pT697 (protein, UniProt Q10728 1-1032, looked up, phosphorylated at T697) Protein phosphatase 1 …: MKMADAKQKRNEQLKRWIGSETDLEPPVVKRQKTKVKFDDGAVFLAACSSGDTDEVLKLLHRGADINYANVDGLTALHQACIDDNVDMVKFLVENGANINQPDNEGWIPLHAAASCGYLDIAEFLIGQGAHVGAVNSEGDTPLDIAEEEAMEELLQNEVNRQGVDIEAARKEEERIMLRDARQWLNSGHISDVRHAKSGGTALHVAAAKGYTEVLKLLIQAGYDVNIKDYDGWTPLHAAAHWGKEEACRILVDNLCDMETVNKVGQTAFDVADEDILGYLEELQKKQNLLHSEKRDKKSPLIESTANMENNQPQKTFKNKETLIIEPEKNASRIESLEQEKADEEEEGKKDESSCSSEEDEEDDSESEAETDKTKPMASVTNAHTASTQAAPAAVTTPTLSSNQGTPTSPVKKFPTSTTKISPKEEERKDESPASWRLGLRKTGSYGALAEITASKEAQKEKDTAGVIRSASSPRLSSSLDNKEKEKDNKGTRLAYVAPTIPRRLGSTSDIEEKENRESSNLRTSSSYTRRKWEDDLKKNSSINEGSTYHRSCSFGRRQDDLISCSVPSTTSTPTVTSAAGLQKSFLSSTSTTAKTPPGSSPAGTQSSTSNRLWAEDSTEKEKDSAPTAATILVAPTVVSAAASSTTALTTTTAGTLSSTSEVRERRRSYLTPVRDEESESQRKARSRQARQSRRSTQGVTLTDLQEAEKTIGRSRSTRTREQENEEKDKEEKEKQDKEKQEEKKESEVSREDEYKQKYSRTYDETYARYRPVSTSSSSTPSSSSLSTLGSSLYASSQLNRPNSLVGITSAYSRGLTKDNEREGEKKEEEKEGEDKSQPKSIRERRRPREKRRSTGVSFWTQDSDENEQERQSDTEDGSSKRDTQTDSVSRYDSSSTSSSDRYDSLLGRSASYSYLEERKPYGSRLEKDDSTDFKKLYEQILAENEKLKAQLHDTNMELTDLKLQLEKATQRQERFADRSLLEMEKRERRALERRISEMEEELKMLPDLKADNQRLKDENGALIRVISKLSK	–	–	0.1684	0.8734
Arhgap35 pS1150 (protein, UniProt Q91YM2 1-1499, looked up, phosphorylated S1150) Rho GTPase-activating protein …: MMMARKQDVRIPTYNISVVGLSGTEKEKGQCGIGKSCLCNRFVRPSADEFHLDHTSVLSTSDFGGRVVNNDHFLYWGEVSRSLEDCVECKMHIVEQTEFIDDQTFQPHRSTALQPYIKRAAATKLASAEKLMYFCTDQLGLEQDFEQKQMPDGKLLVDGFLLGIDVSRGMNRNFDDQLKFVSNLYNQLAKTKKPIVVVLTKCDEGVERYIRDAHTFALSKKNLQVVETSARSNVNVDLAFSTLVQLIDKSRGKTKIIPYFEALKQQSQQIATAKDKYEWLVSRIVKNHNENWPSVSRKMQASPEYQDYVYLEGTQKAKKLFLQHIHRLKHEHIERRRKLYLAALPLAFEALIPNLDEVDHLSCIKAKKLLETKPEFLKWFVVLEETPWDATSHIDNMENERIPFDLMDTVPAEQLYETHLEKLRNERKRAEMRRAFKENLETSPFITPGKPWEEARSFIMNEDFYQWLEESVYMDIYGKHQKQIIDRAKEEFQELLLEYSELFYELELDAKPSKEKMGVIQDVLGEEQRFKALQKLQAERDALILKHIHFVYHPTKETCPSCPACVDAKIEHLISSRFIRPSDRNQKNSLSDLNIDRINLVILGKDGLARELANEIRALCTNDDKYVIDGKMYELSLRPIEGNVRLPVNSFQTPTFQPHGCLCLYNSKESLSYVVESIEKSRESTLGRRDNHLVHLPLTLILVNKRGDTSGETLHSLIQQGQQIASKLQCVFLDPASAGIGYGRNINEKQISQVLKGLLDSKRNLNLVSSTASIKDLADVDLRIVMCLMCGDPFSADDVLSPVLQSQTCKSSHCGSSNSVLLELPIGLHKKRIELSVLSYHSSFSIRKSRLVHGYIVFYSAKRKASLAMLRAFLCEVQDIIPIQLVALTDGAIDVLDNDLSREQLTEGEEIAQEIDGRFTSIPCSQPQHKLELFHPFFKDVVEKKNIIEATHMYDNVAEACSTTEEVFNSPRAGSPLCNSNLQDSEEDVEPPSYHLFREDATLPSLSKDHSKFSMELEGNDGLSFIMSNFESKLNNKVPPPVKPKPPVHFDITKDLSYLDQGHREGQRKSMSSSPWMPQDGFDPSDYAEPMDAVVKPRNEEENIYSVPHDSTQGKIITIRNINKAQSNGSGNGSDSEMDTSSLERGRKVSAVSKPVLYRTRCTRLGRFASYRTSFSVGSDDELGPIRKKEEDQASQGYKGDNAVIPYETDEDPRRRNILRSLRRNTKKPKPKPRPSITKATWESNYFGVPLTTVVTPEKPIPIFIERCIEYIEATGLSTEGIYRVSGNKSEMESLQRQFDQDHNLDLAEKDFTVNTVAGAMKSFFSELPDPLVPYSMQIDLVEAHKINDREQKLHALKEVLKKFPKENHEVFKYVISHLNKVSHNNKVNLMTSENLSICFWPTLMRPDFSSMDALTATRSYQTIIELFIQQCPFFFYNRPISEPPGAAPGSPSAMAPTVPFLTSTPATSQPSPPQSPPPTPQSPMQPLLSSQLQAEHTL	0.2658	0.1001	–	–
Ndrg2 pS332 (protein, UniProt Q8VBU2 2-371, looked up, phosphorylated at S332) Protein NDRG2: AELQEVQITEEKPLLPGQTPEAAKEAELAARILLDQGQTHSVETPYGSVTFTVYGTPKPKRPAIFTYHDVGLNYKSCFQPLFQFGDMQEIIQNFVRVHVDAPGMEEGAPVFPLGYQYPSQDQLADMIPCILQYLNFSTIIGVGVGAGAYILSRYALNHPDTVEGLVLINIDPNAKGWMDWAAHKLTGLTSSIPEMILGHLFSQEELSGNSELIQKYRSLITHAPNLENIELYWNSYNNRRDLNFERGGEMTLKCPVMLVVGDQAPHEDAVVECNSKLDPTQTSFLKMADSGGQPQLTQPGKLTEAFKYFVQGMGYMASSCMTRLSRSRTASLTSAASIDGSRSRSRTLSQSSESGTLPSGPPGHTMEVSC	–	–	1.914	3.419
Ptrf pS171 (protein, UniProt P85125 1-392, looked up, phosphorylated at S171) Caveolae-associated protein 1: MEDVTLHIVERPYSGYPDASSEGPEPTPGEARATEEPSGTGSDELIKSDQVNGVLVLSLLDKIIGAVDQIQLTQAQLEERQAEMEGAVQSIQGELSKLGKAHATTSNTVSKLLEKVRKVSVNVKTVRGSLERQAGQIKKLEVNEAELLRRRNFKVMIYQDEVKLPAKLSVSKSLKESEALPEKEGDELGEGERPEEDAAAIELSSDEAVEVEEVIEESRAERIKRSGLRRVDDFKKAFSKEKMEKTKVRTRENLEKTRLKTKENLEKTRHTLEKRMNKLGTRLVPVERREKLKTSRDKLRKSFTPDHVVYARSKTAVYKVPPFTFHVKKIREGEVEVLKATEMVEVGPDDDEVGAERGAETDLLRGSSPDVHTLLEITEESDAVLVDKSDSD	–	–	-0.2713	3.564
Ppp1r2 pT21 (protein, UniProt P50411 2-205, looked up, phosphorylated at T21) Protein phosphatase inhibitor …: AASTASHRPIKGILKNKTSTTSSVVASAEQPRRTVEEELSKKSQKWDEMNILATYHPADKDYGLMKIDEPDTPYHNMIGDDEDVCSDSEGNEVMTPEILAKKLAAAEGSEPKFRTREQESSGEEDNDLSPEEREKKRQFEMKRKLHYNEGLNIKLARQLISKDLHDDDEDEEMSETADADSMNIEESNQGSTAGDHLQHKSQSS	–	–	1.627	5.158
